One molecule from US20220403031A1 (WUXI BIOLOGICS IRELAND, published 2022) can be followed below.

Experiment [1] addresses T1, hPD-L2.ECD.His (SinoBiological-10292-H08H) (human, UniProt Q9BQ51 20-220).
T1 construct: extracellular domain; His tag
T1 sequence (looked up): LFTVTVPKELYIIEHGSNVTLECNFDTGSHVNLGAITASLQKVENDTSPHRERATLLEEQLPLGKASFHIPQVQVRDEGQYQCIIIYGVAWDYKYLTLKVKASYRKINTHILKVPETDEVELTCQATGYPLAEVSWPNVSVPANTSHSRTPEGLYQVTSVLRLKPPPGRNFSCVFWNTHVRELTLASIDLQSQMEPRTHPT
Put plainly: ELISA on coated protein (1 ug/mL). How it is done:
(§1) The plate was incubated at ambient temperature for 1 hour. The binding of the antibodies to the immobilized proteins was detected by HRP-labeled goat anti-human IgG antibody. The color was developed by dispensing 100 μL of TMB substrate, and then stopped by 100 μL of 2N HCl. The absorbance was read at 450 nm and 540 nm using a microplate spectrophotometer, respectively.
On the technique in general: An ELISA detects its analyte on a solid surface through an enzyme-linked reagent.

The target of experiment [2] is T2, hCD80.ECD.His (SinoBiological-10698-H08H) (human, UniProt P33681 35-242).
T2 construct: extracellular domain; His tag
T2 sequence (looked up): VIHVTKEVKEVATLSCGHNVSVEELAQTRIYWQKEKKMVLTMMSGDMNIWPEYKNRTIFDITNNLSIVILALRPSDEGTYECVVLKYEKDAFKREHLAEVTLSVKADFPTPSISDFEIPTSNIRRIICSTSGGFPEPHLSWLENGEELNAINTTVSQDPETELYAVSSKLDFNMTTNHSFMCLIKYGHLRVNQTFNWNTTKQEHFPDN
The experiment is described as follows: ELISA on coated protein (1 ug/mL). As for the experimental part: as §1

In experiment [3] the target is T3, hCD86.ECD.His (SinoBiological-10699-H08H) (human, UniProt P42081 24-247).
T3 construct: extracellular domain; His tag
T3 sequence (looked up): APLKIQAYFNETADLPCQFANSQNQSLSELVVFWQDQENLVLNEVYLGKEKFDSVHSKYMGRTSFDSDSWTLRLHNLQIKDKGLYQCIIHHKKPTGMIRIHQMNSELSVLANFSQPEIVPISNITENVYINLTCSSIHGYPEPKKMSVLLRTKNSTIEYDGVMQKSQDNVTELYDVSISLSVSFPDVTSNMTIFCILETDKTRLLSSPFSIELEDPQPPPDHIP
Put plainly: ELISA on coated protein (1 ug/mL). As for the experimental part: as §1

Experiment [4] deals with T4, mouse PD-L1 on 293F cells (W315-293F.mPro1.C1) (mouse, UniProt Q9EP73 19-290).
T4 construct: whole, on cells; also called cell surface mouse PD-L1; Mouse PD-L1-expressing 293F cell
T4 sequence (Q9EP73 19-290): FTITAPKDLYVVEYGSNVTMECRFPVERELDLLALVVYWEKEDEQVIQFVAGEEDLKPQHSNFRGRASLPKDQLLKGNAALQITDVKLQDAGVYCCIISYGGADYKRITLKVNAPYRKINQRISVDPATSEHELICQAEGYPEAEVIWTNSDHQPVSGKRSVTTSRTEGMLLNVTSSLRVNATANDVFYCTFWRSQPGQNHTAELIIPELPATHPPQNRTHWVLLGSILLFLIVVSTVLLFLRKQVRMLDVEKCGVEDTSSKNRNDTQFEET
Put plainly: FACS on mouse PD-L1 293F cells. How it is done: After washing with 1×PBS/1% BSA, the secondary antibody PE-labeled goat anti-human IgG was applied and incubated with cells at 4° C. for 1 hour. […] Human IgG1 and IgG4 isotype antibodies were used as negative control. The cells were then washed and resuspended in 1×PBS/1% BSA. MFI of the cells was measured by a flow cytometer (BD) and analyzed by FlowJo (version 7.6.1).

The target of experiment [5] is human serum Albumin (human, UniProt P02768 25-609). The experiment is described as follows: non-specific binding ELISA, antigen coated at 2 ug/mL. As for the experimental part: Non-specific binding ELISA was performed in 96-well high binding plates (Nunc-Immuno Plate, Thermo Scientific). The plate was coated with various antigens (as listed in the left column of Table 11) at 2 μg/mL overnight at 4° C. After blocking with 2% BSA-PBS, 10 μg/ml antibodies were added to the plate and incubated for 2 hours. […] The HRP signal was detected by adding TMB peroxidase substrate and the reaction was stopped after 12 minutes using 2M HCl. The absorbance at 450 nm was read using a microplate reader (Molecular Device). All incubation steps were performed at room temperature. The plate was washed with PBST (0.05% Tween20-PBS) between steps.

In experiment [6] the target is T5, cynomolgus monkey PD-L1 on 293F cells (W315-293F.cynoPro1.2A2) (cynomolgus monkey, UniProt G7PSE7 19-290).
T5 construct: whole, on cells; also called cell surface monkey PD-L1; cynoPD-L1
T5 sequence (G7PSE7 entry or part of it): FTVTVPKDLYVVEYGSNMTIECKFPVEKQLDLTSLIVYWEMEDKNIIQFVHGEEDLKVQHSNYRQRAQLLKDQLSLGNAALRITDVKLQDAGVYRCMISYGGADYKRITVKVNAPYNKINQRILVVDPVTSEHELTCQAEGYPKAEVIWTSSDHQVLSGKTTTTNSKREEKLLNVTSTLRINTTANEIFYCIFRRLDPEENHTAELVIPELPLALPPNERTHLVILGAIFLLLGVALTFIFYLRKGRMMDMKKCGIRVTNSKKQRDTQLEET
Put plainly: FACS affinity on cynomolgus PD-L1 cells, quantitative beads. How it is done:
Binding affinities of testing antibodies to cell surface human, cynomolgus and mouse PD-L1 were determined by flow cytometry on the engineering cell lines, respectively. The cells were transferred in to 96-well U-bottom plates (BD) at a density of 5×10⁴ cells/well. Antibodies to be tested were 1: 2-fold serially diluted in 1% BSA/1×PBS and incubated with cells at 4° C. for 1 hr. Then, the plates were centrifuged at 1500 rpm for 4 mins and the supernatant was discarded. The secondary antibody, Alexa647 conjugated goat anti-human IgG Fc (Jackson, Cat No. 109-605-098, Lot No. 121363), was added to re-suspend cells and incubated at 4° C. in the dark for 30 min. The cells were washed once and re-suspended in 100 μL 1% BSA/1×PBS, then measured by flow cytometry (BD Canto II) and analyzed by FlowJo. Fluorescence intensity was converted to bound molecules/cell based on the quantitative beads (Quantum™ MESF Kits, Bangs Laboratories). KD value was calculated by Graphpad Prism5.

Experiment [7] has as its target T4, mouse PD-L1 on 293F cells …. Put plainly: FACS competition: antibody titrated against 5 ug/mL mouse PD-1 ECD mFc on mouse PD-L1 293F cells. As for the experimental part: Mouse PD-L1 transfected W315-293F.mPro1.C1 cells were transferred into 96-well U-bottom plates at a density of 2×10⁵ cells/well. […] After washing with 1×PBS/1% BSA, the secondary antibody PE-labeled goat anti-mouse IgG was applied and incubated with cells at 4° C. for 1 hour. […] Human IgG1 and IgG4 isotype antibodies were used as negative control. The cells were then washed and resuspended in 1×PBS/1% BSA. MFI of the cells was measured by a flow cytometer (BD) and analyzed by FlowJo (version 7.6.1).

In experiment [8] the target is T6, human PD-L1 on CHO-K1 cells (W315-CHO-K1.hPro1.C11) (human, UniProt Q9NZQ7 19-290).
T6 construct: whole, on cells; also called cell surface human PD-L1; Human PD-L1-expressing CHO-K1 cell
T6 sequence (Q9NZQ7 19-290): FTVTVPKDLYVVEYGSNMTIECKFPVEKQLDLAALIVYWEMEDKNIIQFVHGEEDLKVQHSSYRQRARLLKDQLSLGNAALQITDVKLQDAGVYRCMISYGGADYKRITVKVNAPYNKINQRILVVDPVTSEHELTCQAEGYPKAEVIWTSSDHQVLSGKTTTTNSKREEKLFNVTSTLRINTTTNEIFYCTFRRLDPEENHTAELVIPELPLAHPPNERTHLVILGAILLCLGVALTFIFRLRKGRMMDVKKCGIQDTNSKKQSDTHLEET
Put plainly: FACS competition on human PD-L1 CHO-K1 cells: titrated W3156 antibody mixed with 0.5 ug/mL biotinylated BMK6.hIgG4 (m4), SA-PE [A]. How it is done:
Human PD-L1 expressing cells W315-CHO-K1.hPro1.C11 were transferred into 96-well U-bottom plates at a density of 1×10⁵ cells/well. […] Then the mixture was added to the cells in 96-well plates and incubated at 4° C. for 1 hour. After washing with 1×PBS/1% BSA, the secondary antibody SA-PE was applied and incubated with cells at 4° C. for 1 hour. The cells were then washed and resuspended in 1×PBS/1% BSA. MFI of the cells was measured by a flow cytometer and analyzed by FlowJo (version 7.6.1).

B1: AP3R2-1A3-z12-hIgG1 (Fc fusion)
chain: EVQLVESGGGLVQPGGSLRLSCAASGHFSNLAVNWFRQAPGKERELVAGILWSGGSTFYADSVKGRFTISRGNAENMLYLQMNSLRAEDTAVYYCNTGTNWGQGTLVTVSS
notes: VHH-Fc (hIgG1) fusion of the humanized VHH; also called W3156-AP3R2-1A3-z12-hIgG1; W3156 antibody; not shown: Fc of human IgG1
Consider B1, for which the binding result in experiment [1] was “no binding (tested: 66.7 nM)”; in experiment [2], “no binding (tested: 66.7 nM)”; in experiment [3] it was “no binding (tested: 66.7 nM)”; in experiment [5] it was “no binding (tested: 10 µg/ml)”. Besides, the EC50 (as a rule, the concentration giving half of the maximal effect) in experiment [4] is 1.24 nM. The affinity in experiment [6], expressed as Kd, was 7.3 nM. For the same molecule, in experiment [7], the IC50 (commonly the concentration that inhibits the measured activity by half) worked out at 2.14 nM. Besides, in experiment [8], the “IC50 (read off the curve)” value was about 3 nM.
